These results are taken from patent publication EP4613288A1.

Assay [1] deals with human activated protein C (human) (UniProt P04070). In words: cell-based or functional assay.
For assay [2] the target is unchanged.

B1: murine antibody HAPC1573 (antibody, from another filing, V domains shown)
VH: EVKLEESGGGLVQPGGSMKLSCVASGFTFSNYYLNWVRQSPEKGLEWVADIRLKSNNYEKHYAESVKGRFTISRDDSKSSVYLQMNNLRAEDTGIYYCIREGDYFDYWGQGTTLTVSS
VL: NIVLTQSPASLAVSLGQRATISCRASESVDSFGATFMHWYQQKPGQPPKLLIYLASNLESGVPARFSGSGSRTDFTLTIDPVEADDAATYYCQQNNEDPYTFGGGTKLEIKR
In assay [1], B1 had a Mean Value of the Clotting Time (s), Protac-induced APTT, FIX-deficient plasma, antibody 0.5 µg/ml of 584 s; a Mean Value of the Clotting Time (s), Protac-induced APTT, FIX-deficient plasma, antibody 1 µg/ml of 567 s; a Mean Value of the Clotting Time (s), Protac-induced APTT, FIX-deficient plasma, antibody 5 µg/ml of 404 s; a Mean Value of the Clotting Time (s), Protac-induced APTT, FVIII-deficient plasma, antibody 0.5 µg/ml of 600 s. Also, in assay [1], the Mean Value of the Clotting Time (s), Protac-induced APTT, FVIII-deficient plasma, antibody 1 µg/ml was determined as 629 s; the Mean Value of the Clotting Time (s), Protac-induced APTT, FVIII-deficient plasma, antibody 5 µg/ml was found to be 389 s; the minimal dose inhibiting aPC anticoagulant activity, Protac-induced APTT, human plasma deficient in various coagulation factors was greater than 100 µg/mL.

B2: anti-aPC monoclonal antibody HAPC-14-6 (antibody, V domains shown)
VH: EVQLVESGGGLVQPGGSLRLSCAASGFTFSFYYLNWVRQAPGKGLEWVGDIRLKKNNYEKHYAESVKGRFTISRDDSKSITYLQMNSLRAEDTAVYYCAREGDYFDYWGQGTTVTVSS
VL: DIQLTQSPSSLSASVGDRVTITCRASESVDSFGATFMHWYQQKPGKAPKLLIYLASRLGSGVPSRFSGSGSGTDFTLTISSLQPEDFATYYCQQNNEDPYTFGQGTKLEIK
B2 showed a fold increase in affinity compared to the humanized antibody without mutations in the CDR regions in assay [2] of 100 fold. Also, in assay [1], the Mean Value of the Clotting Time (s), Protac-induced APTT, FIX-deficient plasma, antibody 0.5 µg/ml was found to be 181 s; the Mean Value of the Clotting Time (s), Protac-induced APTT, FIX-deficient plasma, antibody 1 µg/ml amounted to 198 s; the Mean Value of the Clotting Time (s), Protac-induced APTT, FIX-deficient plasma, antibody 5 µg/ml is 180 s; the Mean Value of the Clotting Time (s), Protac-induced APTT, FVIII-deficient plasma, antibody 0.5 µg/ml is 182 s. In assay [1], the Mean Value of the Clotting Time (s), Protac-induced APTT, FVIII-deficient plasma, antibody 1 µg/ml was determined as 187 s; the Mean Value of the Clotting Time (s), Protac-induced APTT, FVIII-deficient plasma, antibody 5 µg/ml came to 162 s; the minimal dose inhibiting aPC anticoagulant activity, Protac-induced APTT, human plasma deficient in various coagulation factors was less than 1 µg/mL.
